Measured values from patent US20180118848A1 (Regeneron, published 2018).

Experiments:
[1] = molecular target: T1, human MUC16 (mucin 16) (human); experiment: MSD ECL cell binding, RLU ratio OVCAR-3 vs SK-OV-3, 16.7 nM Ab
T1 construct: Endogenously expressed on human tumour cell lines; also called hMUC16
Procedure: (§1) The ability of anti-MUC16 antibodies to bind specifically to endogenously expressing MUC16 on the human ovarian carcinoma cell line (OVCAR-3) was evaluated via an electrochemiluminescence based detection assay (Meso Scale Discovery (MSD), Rockville, Md.). […] Detached cells were then washed once in 1×PBS supplemented with Ca²⁺/Mg²⁺ and counted (Cellometer Auto T4 cell counter, Nexcelom Bioscience, Lawrence, Mass.). Approximately 1.0×10⁴ cells were plated in MULTI-ARRAY 96-well carbon electrode plates (MSD) and incubated for 1 h at 37° C. […] Next, serial dilutions of anti-MUC16 or control antibodies (0.85 pM-50 nM) and no-antibody buffer controls were added to the plate-bound cells and incubated for 1 h at room temperature (RT). Plates were then washed to remove the unbound antibodies using an AquaMax2000 plate washer (MDS Analytical Technologies, Sunnyvale, Calif.). Plate-bound antibodies were detected with a SULFO-TAG™-conjugated anti-human kappa light chain antibody (Regeneron) or a SULFO-TAG™-conjugated anti-mouse IgG antibody (Jackson Immunoresearch, West Grove, Pa.) for 1 h at RT. Post-wash, plates were developed with Read Buffer (MSD) according to manufacturer's protocol and luminescent signals were recorded with a SECTOR Imager 6000 (MSD) instrument.
(§2) Luminescence intensity, measured in relative light units (RLU), for the two cell lines was recorded to indicate the binding intensity of each antibody.

[2] = molecular target: T1, human MUC16 (mucin 16); experiment: MSD ECL cell binding, RLU ratio OVCAR-3 vs SK-OV-3, 1.9 nM Ab
Procedure: as §1, §2

[3] = molecular target: T1, human MUC16 (mucin 16); experiment: FACS binding titration on OVCAR3-Luc (MUC16+) cells
Procedure: (§3) A. Briefly, flow cytometric analysis (i.e. fluorescence-activated cell sorting, or FACS) was utilized to determine binding of bispecific antibodies to Jurkat cells or cells expressing human MUC16, followed by detection with a phycoerythrin (PE)-labeled or APC-labeled anti-human IgG antibody. […] After incubation, the cells were washed twice with cold PBS containing 1% filtered FBS and a PE-conjugated or APC-conjugated anti-human secondary antibody was added to the cells and incubated for an additional 30 minutes. Wells containing no antibody or secondary only were also used as controls. After incubation, cells were washed, re-suspended in 200 μL cold PBS containing 1% filtered FBS and analyzed by flow cytometry on a BD FACS Canto II.
B. In separate experiments with analogous conditions to that described above, flow cytometric analysis (or FACS) was utilized to determine binding of select bispecific antibodies to Jurkat cells, PEO-1, OVCAR3-Luc and cynomolgus T cells. […]
For FACS analysis, cells were gated by forward scatter height vs. forward scatter area for single events selection, followed by side and forward scatters. The EC50 for cell binding titration was determined using PRISM™ software (GraphPad Software, Inc., La Jolla, Calif.). Values were calculated using 4-parameter non-linear regression analysis. […]

[4] = molecular target: T1, human MUC16 (mucin 16); experiment: cell-based or functional assay
[5] = molecular target: T1, human MUC16 (mucin 16); experiment: FACS binding titration on PEO-1 (MUC16+) cells
Procedure: as §3
B. In separate experiments with analogous conditions to that described above, flow cytometric analysis (or FACS) was utilized to determine binding of select bispecific antibodies to Jurkat cells, PEO-1, OVCAR3-Luc and cynomolgus T cells. For the titration analysis, serial dilution of selected MUC16×CD3 bispecific antibodies, a first isotype control antibody (a human chimeric IgG4 antibody that binds an irrelevant human antigen with no cross-reactivity to human or cynomolgus CD3) and a second isotype control antibody (a human chimeric IgG4 antibody that binds an irrelevant human antigen with no cross-reactivity to human MUC16), ranging from 66.6 nM to 0.001 nM.
For FACS analysis, cells were gated by forward scatter height vs. forward scatter area for single events selection, followed by side and forward scatters. The EC50 for cell binding titration was determined using PRISM™ software (GraphPad Software, Inc., La Jolla, Calif.). Values were calculated using 4-parameter non-linear regression analysis. (Liu, J., et al. 2005, Biotechnol Letters 27:1821-1827).

[6] = molecular target: T1, human MUC16 (mucin 16); experiment: cell-based or functional assay; remark: listed apart in the source
[7] = molecular target: T1, human MUC16 (mucin 16); experiment: MSD ECL cell binding, RLU ratio OVCAR-3 vs SK-OV-3, 16.7 nM Ab; NS = ratio <2.5-fold
Procedure: as §1, with “Plates were then washed to remove the unbound antibodies using an AquaMax2000 plate washer (MDS Analytical Technologies, Sunnyvale, Calif.).” left out
as §2

[8] = molecular target: T1, human MUC16 (mucin 16); experiment: FACS binding titration on OVCAR3 (MUC16+) cells
[9] = molecular target: T1, human MUC16 (mucin 16); experiment: cell-based or functional assay; remark: listed apart in the source

| Binder | Ratio anti-MUC16 Binding OVCAR-3/SK-OV-3 [1] | Ratio anti-MUC16 Binding OVCAR-3/SK-OV-3 [2] | also measured |
| --- | --- | --- | --- |
| BSMUC16/CD3-005 (bispecific antibody, V domains shown, Anti-MUC16 HCVR of H1H8767P, anti-CD3 HCVR CD3-VH-G20, common light chain of H1H8767P; also called anti-MUC16xCD3 bispecific antibody with CD3-VH-G20 arm; REGN4019) VH 1: QVQLVESGGGLVKPGGSLRLSCAASGFTFSNYYMSWVRQAPGKGLEWISYISGRGSTIFYADSVKGRITISRDNAKNSLFLQMNSLRAEDTAVYFCVKDRGGYSPYWGQGTLVTVSS VH 2: EVQLVESGGGLVQPGRSLRLSCAASGFTFDDYSMHWVRQAPGKGLEWVSGISWNSGSIGYADSVKGRFTISRDNAKNSLYLQMNSLRAEDTALYYCAKYGSGYGKFYYYGMDVWGQGTTVTVSS VL: not shown | – | – | EC50 [3]: 1470 pM; PEO-1 cell depletion EC50 [4]: 77.4 pM; EC50 [5]: 2630 pM; OVCAR3-Luc cell depletion EC50 [6]: 51.6 pM |
| BSMUC16/CD3-002 (bispecific antibody, V domains shown, Anti-MUC16 HCVR of H1H8767P, anti-CD3 HCVR CD3-VH-G5, common light chain of H1H8767P; also called anti-MUC16xCD3 bispecific antibody with CD3-VH-G5 arm) VH 1: QVQLVESGGGLVKPGGSLRLSCAASGFTFSNYYMSWVRQAPGKGLEWISYISGRGSTIFYADSVKGRITISRDNAKNSLFLQMNSLRAEDTAVYFCVKDRGGYSPYWGQGTLVTVSS VH 2: EVQLVESGGGLVQPGRSLRLSCAASGFTFDDYSMHWVRQAPGKGLEWVSGISWNSGSIGYADSVKGRFTISRDNAKNSLYLQMNSLRAEDTALYYCAKDGSGYGKFYYYGMDVWGQGTTVTVSS VL: not shown | – | – | EC50 [8]: 2690 pM; OVCAR3 cell depletion EC50 [9]: 30.6 pM; PEO-1 cell depletion EC50 [4]: 67.5 pM; EC50 [5]: 3130 pM |
| BSMUC16/CD3-001 (bispecific antibody, V domains shown, Anti-MUC16 HCVR of H1H8767P, anti-CD3 HCVR CD3-VH-G, common light chain of H1H8767P; also called anti-MUC16xCD3 bispecific antibody with CD3-VH-G arm) VH 1: QVQLVESGGGLVKPGGSLRLSCAASGFTFSNYYMSWVRQAPGKGLEWISYISGRGSTIFYADSVKGRITISRDNAKNSLFLQMNSLRAEDTAVYFCVKDRGGYSPYWGQGTLVTVSS VH 2: EVQLVESGGGLVQPGRSLRLSCAASGFTFDDYSMHWVRQAPGKGLEWVSGISWNSGSKGYADSVKGRFTISRDNAKNSLYLQMNSLRAEDTALYYCAKYGSGYGKFYHYGLDVWGQGTTVTVSS VL: not shown | – | – | EC50 [8]: 1200 pM; OVCAR3 cell depletion EC50 [9]: 22.4 pM; EC50 [3]: 1320 pM; PEO-1 cell depletion EC50 [4]: 25.6 pM; EC50 [5]: 3020 pM; OVCAR3-Luc cell depletion EC50 [6]: 15.4 pM |
| H1H9524N (antibody, human IgG1, V domains shown, Human IgG1 form of H3M9524N) VH: QVQLQQWGAGLLKPSETLSLTCAVYGGSFSDYYWSWIRQPPGKGLEWIGEINHRGKTNYNPSLKSRVSISVDPSKNQFSLKLSSVTAADTAVYYCARQGWNYAIFDYWGQGILVPVSS VL: not shown | 48 ratio | 20 ratio | – |
| H1H9525N (antibody, human IgG1, V domains shown, Human IgG1 form of H3M9525N) VH: QVQLQQWGAGLLKPSETLSLTCAVYGGSFSGYYWSWIRQPPGKGLEWIGEINHSGKTTYSPSLKSRVTISVDTSKSQFSLKLSSVTAADTAVYYCARQGLNYAIFDYWGQGTLVTVSS VL: not shown | 21 ratio | 4 ratio | – |
| H1H8770P (antibody, human IgG1, V domains shown, Human IgG1) VH: QVQLVESGGGVVQPGRSLRLSCAASGFTFSDHGMHWVRQAPGKGLEWVAVISYHGSNKHYADSVKGRFTISRDNSKNALYLQMNSLRPEDTAMYYCAKDGYDFWNGYSLFDYWGQGTLVTVSS VL: DIQMTQSPSSLSASVGDRVTITCRASQSISNYLNWYQQKPGKAPKLLIYTASNLLSGVPSRFSGSGSGTDFTLTISSLQPEDFATYYCQQSYSTPPITFGQGTKLEIK | 3 ratio | 9 ratio | – |
| H1H8808P (antibody, human IgG1, V domains shown, Human IgG1) VH: QVQLVESGGGVVQPGRSLRLSCVASGFTFSNYGIHWVRQAPGKGLEWVAVISDDGSFKFYADSVKGRFTISRDNSKNTLYLQMNSLRVEDSAVYHCAKWQHNWNDGGFDYWGQGTLVTVSS VL: EIVLTQSPDTLSLSPGERATLSCRASQSLSSNYLAWYRQKPGQAPRLLIYGISSRATGIPDRFSGSGSGTDFTLTISRLEPEDFAVYYCQQYGSSPWTFGQGTKVEIK | – | 4 ratio | Ratio anti-MUC16 Binding OVCAR-3/SK-OV-3 [7]: < 2.5 ratio |

Now from value to binder, other results behind:

| Ratio anti-MUC16 Binding OVCAR-3/SK-OV-3 [1] | Ratio anti-MUC16 Binding OVCAR-3/SK-OV-3 [2] | Binder | also measured |
| --- | --- | --- | --- |
| 3 ratio | 8 ratio | H1H8790P (antibody, human IgG1, V domains shown, Human IgG1) VH: EVQLVESGGGLVQPGGSLRLSCEASGFTFSNYAMSWVRQAPGKGLEWVSGMSGSGTYPYYADSVKGRFTISRDNSKNMLYLQMNSLRVKDTAVYYCAKDGVDTAMILDTFDLWGQGTMVTVSS VL: not shown | – |
| 74 ratio | 109 ratio | H1H9529N (antibody, human IgG1, V domains shown, Human IgG1 form of H3M9529N) VH: QVQLQQWGAGLLKPSETLSLTCAVYGGSFSGFYWSWIRQPPGKGLEWIGEINHSGSAKYNPSLKNRVIISIDTSKNQFSLKLDSVTAADTAVYNCARQGWNFAIFDYWGQGTLVDVSS VL: DIVMTQSPDSLAVSLGGRATINCKSSQSVLHSSYNKDHLAWYQQRPGQPPKLLIYWASTRESGVPDRFSGSGSGTDFTLTISSLQAEDVAVYYCQQYNILPPTFGQGTRVEIK | – |
| – | 4 ratio | H1H8767P (antibody, human IgG1, V domains shown, Human IgG1) VH: QVQLVESGGGLVKPGGSLRLSCAASGFTFSNYYMSWVRQAPGKGLEWISYISGRGSTIFYADSVKGRITISRDNAKNSLFLQMNSLRAEDTAVYFCVKDRGGYSPYWGQGTLVTVSS VL: not shown | Ratio anti-MUC16 Binding OVCAR-3/SK-OV-3 [7]: < 2.5 ratio |
| 4 ratio | 11 ratio | H1H8783P (antibody, human IgG1, V domains shown, Human IgG1) VH: QVQLVESGGGVVQPGRSLRLSCAASGFTFSDHAMHWVRQAPGKGLEWVAVISYHGTDKQYGDSVKGRFTISRDNSKNALYLQMNSLRPEDTAMYYCAKDGYDFWNAYSLFDYWGQGTLVTVSS VL: DIQMTQSPSSLSASVGDRVTITCRASQSISNYLNWYQQKPGKAPKLLIYTASSLLSGVPSRFSGSGSGTDFTLTISSLQPEDFATYYCQQSYSTPPITFGQGTRLEIK | – |
| 18 ratio | 41 ratio | H1H9528N (antibody, human IgG1, V domains shown, Human IgG1 form of H1M9528N) VH: QMQLQESGPGLVKPSETLSLTCTVSGGSISSYYWNWIRQPPGKGLEWIGYIYYSGNNFNPSLKSRVTISVDTSKNQFSLKLSSVTAADTAVYYCARAFHWNYEFDYWGQGTLVTVSS VL: EIVLTQSPGTLSLSPGERATLSCRASQSVSNNYLAWYQQKPGQAPRLLLYGASSRTTDIPDRFSGSGSGTDFTLTISRLEPEDFAVYYCQQYDNSPLTFGGGTKVEIR | – |
| 13 ratio | 12 ratio | H1H9538N (antibody, V domains shown) VH: QVQLQESGPGLVKPSETLSLTCTVSGGSISSYYWSWIRQPPGKGLEWIGYIYYSGSTNYNPSLKSRVTISVDTSKNQFSLKLSSVTAADTAVYYCARKKLVFDYWGQGTLVTVSS VL: not shown | – |
| 3 ratio | 8 ratio | H1H8794P (antibody, V domains shown, Human IgG1) VH: QVQLVESGGGLVKPGGSLRLSCAASGFTFRDYSMSWIRQAPGKGLEWVSYVTFFNSAIYYADSVKGRFTISRDNAKNSLYLQMNSLRAEDTAVYYCAREREPIVGGFDYWGQGTLVTVSS VL: DIQMTQSPSSLSASVGDRVTITCRASQSINSYLNWYQQKPGKAPKLLIYAASSLQGGVPSRFSGGGSGTDFTLTITSLQPEDFATFYCQQSYSSPPITFGQGTRLEIK | – |
